Read-outs that look alike come from different tables or passages of the source.
T1: antigen (Homo sapiens, UniProt Q14392)
T1 sequence (Q14392 20-662): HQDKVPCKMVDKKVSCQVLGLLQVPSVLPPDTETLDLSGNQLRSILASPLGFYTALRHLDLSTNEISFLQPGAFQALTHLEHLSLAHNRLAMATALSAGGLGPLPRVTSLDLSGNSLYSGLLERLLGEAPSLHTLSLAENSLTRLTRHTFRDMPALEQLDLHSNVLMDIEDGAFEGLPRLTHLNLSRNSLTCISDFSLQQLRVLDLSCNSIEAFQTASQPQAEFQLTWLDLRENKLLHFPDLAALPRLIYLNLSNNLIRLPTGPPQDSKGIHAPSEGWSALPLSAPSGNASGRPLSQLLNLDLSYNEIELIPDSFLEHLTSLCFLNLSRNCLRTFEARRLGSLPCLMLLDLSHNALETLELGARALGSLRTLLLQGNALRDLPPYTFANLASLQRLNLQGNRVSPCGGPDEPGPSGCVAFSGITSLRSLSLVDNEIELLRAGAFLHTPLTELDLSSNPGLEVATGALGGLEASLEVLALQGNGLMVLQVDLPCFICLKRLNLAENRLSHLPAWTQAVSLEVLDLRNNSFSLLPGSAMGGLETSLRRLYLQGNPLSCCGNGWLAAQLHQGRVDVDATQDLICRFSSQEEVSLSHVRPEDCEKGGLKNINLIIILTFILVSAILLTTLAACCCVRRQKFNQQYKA

B1: H1L2: humanized PIIO-1 antibody, VH SEQ ID NO: 20 and VL SEQ ID NO: 24 (antibody, V domains shown)
VH: QVQLQESGPGLVKPSQTLSLTCTVSGYSITSDYAWNWIRQFPGNKLEWMGYISYSGSTSYTPSLKSRVTISRDTSKNHFSLKLSSVTAADTAVYYCAKSGGDYYGSSSYWYFDVWGQGTMVTVSS
VL: DIVLTQSPSSLAVSLGERVTMNCKSSQSLLNSRSQKNYLAWYQQKPGQPPKLLIYGASTRGSGVPDRFSGSGSGTDFTLTISSVQAEDVAVYYCQNDHSYPFTFGQGTKLEIKR
B2: H1L1: humanized PIIO-1 antibody, VH SEQ ID NO: 20 and VL SEQ ID NO: 23 (antibody, V domains shown)
VH: QVQLQESGPGLVKPSQTLSLTCTVSGYSITSDYAWNWIRQFPGNKLEWMGYISYSGSTSYTPSLKSRVTISRDTSKNHFSLKLSSVTAADTAVYYCAKSGGDYYGSSSYWYFDVWGQGTMVTVSS
VL: DIVLTQSPSSLAVSLGERATMNCKSSQSLLNSRSQKNYLAWYQQKPGQPPKLLIYGASTRGSGVPDRFSGSGSGTDFTLTISSLQAEDVAVYYCQNDHSYPFTFGQGTKLEIKR
B3: H2L1: humanized PIIO-1 antibody, VH SEQ ID NO: 21 and VL SEQ ID NO: 23 (antibody, V domains shown)
VH: QVQLQESGPGLVKPSQTLSLTCTVSGYSITSDYAWNWIRQFPGNKLEWMGYISYSGSTSYTPSLKSRITISRDTSKNHFFLKLSSVTAADTAVYYCAKSGGDYYGSSSYWYFDVWGQGTMVTVSS
VL: DIVLTQSPSSLAVSLGERATMNCKSSQSLLNSRSQKNYLAWYQQKPGQPPKLLIYGASTRGSGVPDRFSGSGSGTDFTLTISSLQAEDVAVYYCQNDHSYPFTFGQGTKLEIKR

Key:
[1] = Reducing CE-SDS (heterogeneity); type: physicochemical; conditions: for OTHER (%) / PK#1 (%) / PK#2 (%) / PK#3 (%): Reducing-CE-SDS
Experimental: (§1) Analysis of the heterogeneity by Capillary Electrophoresis (CE). The sample was prepared in reducing and non-reducing labeling buffer before being submitted to the CE analysis. A summary of the Reducing-CE-SDS and Non-Reducing-CE-SDS results are shown in FIG. 13A/Table H and FIG. 13B/Table I, respectively: […]

[2] = Aggregation potential by DLS analysis; type: physicochemical; conditions: for Peak 1 Mass / Peak 1 Mode Diameter / Peak 1 PDI / Peak 2 Mass: DLS at 25° C.
Experimental: Aggregation potential by DLS analysis. DLS was performed on UNcle system (Unchained Labs). DLS was measured at 25° C. Data was calculated and analyzed using UNcle Analysis Software. DLS: Dynamic light scattering PDI: Polydispersity index, PDI=(standard deviation/mean hydrodynamic radius).
Dynamic Light Scattering (DLS) is used to detect aggregation in the antibody sample. “Mode diameter” is protein particle diameter and “mass percentage” is the amount of each size fraction in percentage. “PDI” is Polydispersity Index; the higher this index, the more polydispersity in the sample is. […] Peak 1 is the major peak and represents the IgG monomer. The inventor takes “Peak 1 mass percentage” and “PDI” value into consideration in selecting a lead.

[3] = test system: Baculovirus; assay: Baculovirus (BV) ELISA for non-specific binding
Experimental: Baculovirus (BV) ELISA was employed as a preliminary assay to evaluate antibody's potential nonspecific binding risk.
In Baculovirus (BV) ELISA, the inventor used Rituxan Mab as reference. […] If a clone only has binding on BV, but not on 293 cells, it will be considered as having a low risk of non-specific binding.
Methods—Baculovirus ELISA. Plates are coated with 50 μl of 1:500 diluted Baculovirus sample in PBS in each well. Plates are kept at 4° C. for overnight. The plates are washed with 300 μL of wash buffer ×3 and 200 μl blocking buffer (1% BSA) is added at RT for 60 min. Plates are washed with 300 μl of wash buffer ×3 and 100 μl of diluted Abs are added at different concentrations/well, followed by RT incubation for 1 hr. Plates are washed with 300 μl of wash buffer ×6 and 100 μl of 1:5000 HRP conjugated second Ab in PBS is added followed by RT incubation for 1 hr. The plates are washed with 300 μl of wash buffer ×6. Developing buffer is added and the plate is read.

[4] = biological target: T1, antigen; assay: Label-free kinetic binding assay on Gator; conditions: for Rmax / koff / kon: IgG 2 μg/ml on anti-human Fc probes, antigen 5 μg/ml
Experimental: Affinity measurement. Label-free kinetic binding assay was performed on Gator (similar to Octet).
Methods. Affinity was measured on Gator (ProbeLife, Palo Alto). In brief, the purified IgG sample was diluted in K buffer at 2 μg/ml, and the antigen was diluted at 5 μg/ml. The antibody-loaded anti-human Fc probes were dipped in antigen wells for 5 mins and then moved to K buffer wells for 5 mins. In the whole process, the sample plate was shaken at 1,000 rpm. The data analysis was carried out using Gator software (ProbeLife).

[5] = Thermostability by DSF/SLS (UNcle); type: physicochemical; conditions: for SLS Tagg 266: SLS at 266 nm; for SLS Tagg 473: SLS at 473 nm
Experimental: Developability Analysis for PIIO-1 humanization leads. Antibodies were analyzed for thermostability by DSF/SLS. Samples were submitted to the UNcle system (Unchained Labs) for analysis. A temperature ramp of 1° C./min was performed with monitoring from 20° C. to 95° C. for DSF and SLS. UNcle measures SLS at 266 nm and 473 nm. Tm and Tagg were calculated and analyzed by using the UNcle Analysis Software. DSF: Differential scanning fluorimetry; SLS: Static light scattering; Tm: Melting temperature; Tagg 266: Thermal aggregation when SLS at 266 nm; Tagg 473: Thermal aggregation when SLS at 473 nm. A summary is shown below in Table F:
IgG is a multi-domain structure and each domain has its own melting Temperature (Tm). […] Fabs have Tm in a wide range, generally about 50-85° C., due to large sequence variation. Therefore, the Tm values measured by various analytical techniques are usually “apparent” transition temperatures rather than the real Tm for each domain. In the case of whole IgG, there are often 2-3 Tm values in DSF measurement, presenting some challenge in determining which Tm represents which domain.
Tagg is the temperature at which SLS starts to detect aggregation particles. Tagg266 measures SLS at 266 nm, which is more sensitive and suitable to detect smaller aggregation particles. Tagg473 measures SLS at 473 nm and is better to detect larger particles.

[6] = test system: Ag(−) cell; assay: FACS analysis with Ag(−) cell (non-specific binding); conditions: 5 ug/ml
Experimental: Methods—FACS analysis. Cell preparation: Cell were harvested and washed with PBS+2% FBS for one time. Cell density was adjusted to 1.5E6/mL in PBS/2% FBS. Cell were added to 96 U-bottom well plates at 100 μL/well. Antibody samples preparation: Antibody in supernatant was adjusted to 10 μg/mL using PBS+2% FBS, with serial 5 times dilution performed to obtain 3 concentrations of antibody solution. The blank was PBS+2% FBS. Antibody solutions were placed into 96 U-bottom well plates at 100 μL/well in the same arranging pattern as the cell preparation. Incubation: The antibody samples (100 μl) were mixed with the cells (100 μl), and incubated at RT for 1 h, then centrifuged the plate for 3 min at 1000 rpm (swing bucket). The supernatant was pipetted and the cells were washed with PBS+2% FBS for one time. Incubation with the secondary antibody: Cy3-Conjugated AffiniPure Goat Anti-Human IgG was diluted 250× by PBS+2% FBS, and added to the 96 U-bottom well plate with 100 μl/well, then incubated at RT for 30 min. After that, the plate was centrifuged at 1000 rpm for 3 min and the supernatant was pipetted out. The cell was washed with PBS+2% FBS twice. Cells were re-suspended in 200 μl PBS+2% FBS and analyzed on FACS. The MFI of total live cells were used as binding signal.
Methods—heat treatment. Culture supernatant was serial diluted to the indicated concentration of IgG with cell media and heated at 70° C. for 5 mins on a PCR machine, then quickly cooled down to room temperature.

[7] = Non-reducing CE-SDS (heterogeneity); type: physicochemical
Experimental: as §1

[8] = ramp 1° C./min, 20° C. to 95° C.

Molecule	OTHER (%) [1] [%]	PK#1 (%) [1] [%]	PK#2 (%) [1] [%]	PK#3 (%) [1] [%]	Peak 1 Mass [2] [%]	Peak 1 Mode Diameter [2] [nm]	Peak 1 PDI [2]	Peak 2 Mass [2] [%]	BV ELISA with purified IgG, raw BV binding data ([3]; Ab. Conc. 0.15625 ug/ml)	BV ELISA with purified IgG, raw BV binding data ([3]; Ab. Conc. 0.3125 ug/ml)	BV ELISA with purified IgG, raw BV binding data ([3]; Ab. Conc. 0.625 ug/ml)	BV ELISA with purified IgG, raw BV binding data ([3]; Ab. Conc. 1.25 ug/ml)	BV ELISA with purified IgG, raw BV binding data ([3]; Ab. Conc. 2.5 ug/ml)	BV ELISA with purified IgG, raw BV binding data ([3]; Ab. Conc. 5 ug/ml)	BV ELISA with purified IgG, raw BV binding data ([3]; Ab. Conc. 10 ug/ml)	BV ELISA with purified IgG, raw BV binding data ([3]; Ab. Conc. 20 ug/ml)	KD value compared with the chimeric [4]	Rmax [4]	koff [4]	kon [4]	also measured
B1	0.9	1.4	29.1	68.7	99.94	9.68	0.361	0	15.6	15.4	23.5	26.6	39.6	38.1	102.3	253.4	same KD value to the chimeric	0.885	0.000813	9.98E+04	homogeneity (Table H) [1]: superior homogeneity versus clone huPIIO-1VH2VL1; comparison of humanized antibodies by Table G [2]: superior to huPIIO-1VH1VL1; PDI compared with WT ([2]; listed as VH1VL2): slightly higher PDI than that of the chimeric clone; BV-binding in words ([3]; purified antibodies, Rituxan as reference): a bit higher signal; thermostability compared with parental 4D3 chimeric antibody (Table F) [5]: superior thermostability over the parental 4D3 chimeric antibody; SLS Tagg 266 [5]: 78.8 °C; SLS Tagg 473 [5]: 79.3 °C; aggregation risk ([5]; from Tagg266 and Tagg473 in SLS assay): very low aggregation risk; DSF TM2 [5, 8]: 76.7 °C; DSF Tm1 [5, 8]: 70.0 °C; DSF Tm3 [5, 8]: 87.5 °C; FACS with Ag(−) cell (MFI) ([6]; Heating): 3.35; FACS with Ag(−) cell (MFI) ([6]; Non-Heating): 3.24; Main Peak (%) [7]: 97.6%; OTHER (%) [7]: 2.4%
B2	0.9	5.6	23.2	70.4	99.95	9.68	1.228	0	15.0	16.2	14.7	16.0	18.3	24.9	52.7	157.2	same KD value to the chimeric	0.791	0.00081	1.01E+05	PDI compared with WT [2]: slight worse than WT; SLS Tagg 266 [5]: 74.2 °C; SLS Tagg 473 [5]: 74.9 °C; DSF TM2 [5, 8]: 83.7 °C; DSF Tm1 [5, 8]: 70.2 °C; FACS with Ag(−) cell (MFI) ([6]; Heating): 3.36; FACS with Ag(−) cell (MFI) ([6]; Non-Heating): 3.31; Main Peak (%) [7]: 97.6%; OTHER (%) [7]: 2.4%
B3	2.7	21.7	6.9	68.7	100	9.68	0.141	0	14.5	14.6	15.6	18.3	17.8	30.8	82.7	161.0	same KD value to the chimeric	0.756	0.000806	1.00E+05	comparison of humanized antibodies by Table G [2]: superior to huPIIO-1VH1VL1; SLS Tagg 266 [5]: 73.7 °C; SLS Tagg 473 [5]: 74.7 °C; DSF TM2 [5, 8]: 83.2 °C; DSF Tm1 [5, 8]: 69.9 °C; FACS with Ag(−) cell (MFI) ([6]; Heating): 3.29; FACS with Ag(−) cell (MFI) ([6]; Non-Heating): 3.23; Main Peak (%) [7]: 89.1%; OTHER (%) [7]: 10.8%
